Kd and Ki data for 8 molecules are collected here from article PMC5350102, “Efficient Binding of the NOS1AP C-Terminus to the nNOS PDZ Pocket Requires the Concerted Action of the PDZ Ligand Motif, the Internal ExF Site and Structural Integrity of an Independent Element” (Frontiers in Molecular Neuroscience, 2017).

Positions count from the first letter of the chain named. Numbers in names are those of the source. Where “and” joins values, the source holds several entries; their conditions need not be identical. Equal entries are not always repeated. Where no end group is shown, it is not given here. fluorescein = fluorescein label at the peptide N-terminus

Settings in all cases: both partners purified
The target in test [1] is T1, His-nNOS[1–155] (human, UniProt P29475-1 1-155).
T1 construct: Two batches were used
As to the kind of experiment: fluorescence polarisation; increasing His-nNOS(1–155) added to 1 μM F-GDLV in 50 mM Tris pH 7.4, 100 mM NaCl, 1 mM EDTA, 0.1% BSA; one-site quadratic fit; triplicates from each of two nNOS batches. On the technique in general: In fluorescence polarisation assays a small probe gives low polarisation when free and higher when bound to something large.

The target of test [2] is T1, His-nNOS[1–155]. The description is as above. The source holds these as a separate data set.
A further test has as its target T2, GST-nNOS[1–155] (human, UniProt P29475-1 1-155).
T2 construct: also called GST-fused nNOS protein
The test can be described thus: pull-down; solid-phase no-wash binding assay: 5 μl beads bound to 1 μg GST-fused nNOS protein (or GST for background) rotated with His-TAT-NOS1AP peptides for 1 h at 4°C; unbound removed by centrifugation in filter plates, no wash; bound peptide quantified by fluorescent immunoblot; GST background subtracted; 1-site quadratic fit. (In general: In western blotting, separated proteins are transferred to a membrane and probed.)

The target of test [3] is T1, His-nNOS[1–155]. As to the kind of experiment: fluorescence polarisation; competition FP: 1 μM F-GDLV, 4 μM His-nNOS(1–155), increasing competitor; approximate Kc (dissociation constant of the competitor, affinity for the nNOS PDZ pocket) from the single-site competition formula.

In general, Kd refers to the concentration at which binding is half-saturated. Low readings indicate a tighter complex, high ones a looser complex. Usually Ki stands for the equilibrium dissociation constant of an inhibitor or competing ligand from its target. The low end stands for higher affinity, the high end for lower affinity.

B1: F-GDLV (fluorescein-RRRRWGDLV) (peptide)
peptide: fluorescein-RRRRWGDLV
notes: also called F-GLDV; source: synthetic peptide, bought: Genic Bio (Shanghai, China)
With B1, the Kd in the test with His-nNOS[1–155] [1] is 10.7 µM; in the test with His-nNOS[1–155] [2] it was 10.2 µM and 11.2 µM.

B2: His-TAT-NOS1AP[400–503], denatured (domain or fragment, human, UniProt O75052 400-503, looked up)
chain: HSPPLGAGLADFAHPAGSPLGRRDCLVKLECFRFLPPEDTPPPAQGEALLGGLELIKFRESGIASEYESNTDESEERDSWSQEELPRLLNVLQRQELGDGLDDE
notes: also called denatured NOS1AP[400–503]; NOS1AP 400-503 His-TAT fusion, Denatured
As to B2, the Kd with GST-nNOS[1–155] turned out to be 5.3 µM. That is a single-digit micromolar value.

B3: His-TAT-NOS1AP[400–503] E429A, denatured (domain or fragment, human, UniProt O75052 400-503, looked up)
chain: B2 chain with E30A
notes: NOS1AP, human, residues 400-503 with E429A in the ExF motif
Regarding B3, the Kd in the test with GST-nNOS[1–155] stood at 99 µM.

B4: Peptide GDLV (NH2-RRRRWGDLV-COOH) (peptide)
peptide: H-RRRRWGDLV-OH
notes: also called unlabelled GDLV; source: synthetic peptide, bought: Genic Bio (Shanghai, China)
The molecule B4 had a Ki with His-nNOS[1–155] [3] of 10.7 µM.

B5: NOS1AP[432–506] cleaved from GST (domain or fragment, human, UniProt O75052 432-506, looked up)
chain: RFLPPEDTPPPAQGEALLGGLELIKFRESGIASEYESNTDESEERDSWSQEELPRLLNVLQRQELGDGLDDEIAV
The molecule B5 displayed a Ki with His-nNOS[1–155] [3] of over 10 µM.

B6: His-TAT-NOS1AP[400–506], denatured (domain or fragment, human, UniProt O75052 400-506, looked up)
chain: HSPPLGAGLADFAHPAGSPLGRRDCLVKLECFRFLPPEDTPPPAQGEALLGGLELIKFRESGIASEYESNTDESEERDSWSQEELPRLLNVLQRQELGDGLDDEIAV
notes: Same construct as m10, but prepared under denaturing conditions
B6: in the test with GST-nNOS[1–155], the Kd worked out at 2.4 µM.

B7: NOS1AP[400–506] F431A cleaved from GST (domain or fragment, human, UniProt O75052 400-506, looked up)
chain: B6 chain with F32A
On to B7, for which, in the test with His-nNOS[1–155] [3], the Ki was over 10 µM.

B8: Peptide EIAV (NH2-DSLDDEIAV-COOH) (peptide)
peptide: H-DSLDDEIAV-OH
notes: last 9 amino acids of rat/mouse NOS1AP; also called NOS1AP-9C; DSLDDEIAV (NOS1AP-9C); source: synthetic peptide, synthesized by Xigen AG (Lausanne, Switzerland)
With B8, in the test with His-nNOS[1–155] [3], the Ki is over 300 µM.
